What is called Kd is the constant that tells how readily two partners part at equilibrium. A low value points to tighter binding. A word on the koff: it is the rate constant with which the complex falls apart. The low end stands for a long-lived complex, the high end for a short-lived complex. Usually kon stands for the second-order rate constant of association. A high value points to fast association.

Here are results for three molecules from patent US20240252628A1 (ACCELERON PHARMA, published 2024).

T1: BMP6 (UniProt P22004 382-513, limits assumed)
T1 sequence (looked up): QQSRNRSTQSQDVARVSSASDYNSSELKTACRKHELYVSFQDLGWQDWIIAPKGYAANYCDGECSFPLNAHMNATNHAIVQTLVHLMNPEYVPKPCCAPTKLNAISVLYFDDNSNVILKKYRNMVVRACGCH

T2: BMP10 (UniProt O95393 317-424)
T2 sequence (looked up): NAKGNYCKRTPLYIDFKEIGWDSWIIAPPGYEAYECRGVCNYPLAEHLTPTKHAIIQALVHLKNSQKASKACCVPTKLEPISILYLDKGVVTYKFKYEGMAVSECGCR

T3: GDF3 (UniProt Q9NR23 251-364)
T3 sequence (looked up): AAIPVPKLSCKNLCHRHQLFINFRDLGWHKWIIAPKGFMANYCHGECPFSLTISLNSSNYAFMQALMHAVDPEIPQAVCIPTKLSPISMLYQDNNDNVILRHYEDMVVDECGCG

T4: BMP9 (UniProt Q9UK05 320-429)
T4 construct: also called GDF2
T4 sequence (looked up): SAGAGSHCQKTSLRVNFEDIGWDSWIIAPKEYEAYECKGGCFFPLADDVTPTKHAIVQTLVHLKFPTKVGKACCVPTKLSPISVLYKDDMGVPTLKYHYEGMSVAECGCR

T5: activin A (UniProt P08476 311-426)
T5 construct: The same holds for m2-m11
T5 sequence (looked up): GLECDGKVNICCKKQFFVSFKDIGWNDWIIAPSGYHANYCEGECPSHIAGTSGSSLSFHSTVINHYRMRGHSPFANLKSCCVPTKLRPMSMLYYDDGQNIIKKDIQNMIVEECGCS

T6: GDF8 (UniProt O14793 267-375)
T6 construct: also called myostatin
T6 sequence (looked up): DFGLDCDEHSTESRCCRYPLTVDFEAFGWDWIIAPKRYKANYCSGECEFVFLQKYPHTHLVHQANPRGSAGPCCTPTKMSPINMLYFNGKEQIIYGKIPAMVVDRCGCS

T7: activin B (UniProt P09529 293-407)
T7 sequence (looked up): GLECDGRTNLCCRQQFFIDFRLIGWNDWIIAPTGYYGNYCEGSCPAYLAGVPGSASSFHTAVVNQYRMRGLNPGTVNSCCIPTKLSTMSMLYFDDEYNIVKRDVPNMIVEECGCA

B1: ActRIIB-Fc:ALK4-Fc heterodimer (Fc fusion)
chain 1: GRGEAETRECIYYNANWELERTNQSGLERCEGEQDKRLHCYASWRNSSGTIELVKKGCWLDDFNCYDRQECVATEENPQVYFCCCEGNFCNERFTHLPEAGGPEVTYEPPPTAPTGGGTHTCPPCPAPELLGGPSVFLFPPKPKDTLMISRTPEVTCVVVDVSHEDPEVKFNWYVDGVEVHNAKTKPREEQYNSTYRVVSVLTVLHQDWLNGKEYKCKVSNKALPAPIEKTISKAKGQPREPQVYTLPPSRKEMTKNQVSLTCLVKGFYPSDIAVEWESNGQPENNYKTTPPVLKSDGSFFLYSKLTVDKSRWQQGNVFSCSVMHEALHNHYTQKSLSLSPGK
chain 2: SGPRGVQALLCACTSCLQANYTCETDGACMVSIFNLDGMEHHVRTCIPKVELVPAGKPFYCLSSEDLRNTHCCYTDYCNRIDLRVPSGHLKEPEHPSMWGPVETGGGTHTCPPCPAPELLGGPSVFLFPPKPKDTLMISRTPEVTCVVVDVSHEDPEVKFNWYVDGVEVHNAKTKPREEQYNSTYRVVSVLTVLHQDWLNGKEYKCKVSNKALPAPIEKTISKAKGQPREPQVYTLPPSREEMTKNQVSLTCLVKGFYPSDIAVEWESNGQPENNYDTTPPVLDSDGSFFLYSDLTVDKSRWQQGNVFSCSVMHEALHNHYTQKSLSLSPG
notes: the receptor domains are the same in all; also called ALK4-Fc:ActRIIB-Fc heterodimer; ActRIIB-Fc:ALK4-Fc heterodimeric complex
B2: ActRIIB-Fc:ActRIIB(L79E)-Fc heterodimer (Fc fusion)
chain 1: GRGEAETRECIYYNANWELERTNQSGLERCEGEQDKRLHCYASWRNSSGTIELVKKGCWEDDFNCYDRQECVATEENPQVYFCCCEGNFCNERFTHLPEAGGPEVTYEPPPTAPTGGGTHTCPPCPAPELLGGPSVFLFPPKPKDTLMISRTPEVTCVVVDVSHEDPEVKFNWYVDGVEVHNAKTKPREEQYNSTYRVVSVLTVLHQDWLNGKEYKCKVSNKALPAPIEKTISKAKGQPREPQVYTLPPSREEMTKNQVSLTCLVKGFYPSDIAVEWESNGQPENNYDTTPPVLDSDGSFFLYSDLTVDKSRWQQGNVFSCSVMHEALHNHYTQKSLSLSPG
chain 2: B1 chain 1
notes: the receptor domains are the same in both; also called ActRIIB-Fc:ActRIIB(L79E)-Fc heteromer
B3: GDF11 (ligand, UniProt O95390 299-407, looked up)
chain: NLGLDCDEHSSESRCCRYPLTVDFEAFGWDWIIAPKRYKANYCSGQCEYMFMQKYPHTHLVQQANPRGSAGPCCTPTKMSPINMLYFNDKQQIIYGKIPGMVVDRCGCS
notes: also called BMP11

One experiment concerns the target T1, BMP6. As to the kind of experiment: SPR (Biacore), anti-Fc capture of receptor. As for the experimental part:
(§1) A Biacore™-based binding assay was used to compare ligand binding selectivity of the ActRIIB-Fc:ALK4-Fc heterodimeric complex described above with that of ActRIIB-Fc and ALK4-Fc homodimer complexes. The ActRIIB-Fc:ALK4-Fc heterodimer, ActRIIB-Fc homodimer, and ALK4-Fc homodimer were independently captured onto the system using an anti-Fc antibody. Ligands were injected and allowed to flow over the captured receptor protein. Results are summarized in the table below, in which ligand off-rates (kd) most indicative of effective ligand traps are denoted in bold.
(In general: SPR reads the build-up and loss of mass on a sensor chip optically.)

In experiment [1] the target is T2, BMP10. As to the kind of experiment: SPR (Biacore), anti-Fc capture of receptor. Here is the method: as §1
The next experiment deals with T3, GDF3. As to the kind of experiment: SPR (Biacore), anti-Fc capture of receptor. Here is the method:
as §1

The target of another experiment is T4, BMP9. As to the kind of experiment: SPR (Biacore), anti-Fc capture of receptor. Here is the method:
as §1

Experiment [2] has as its target T5, activin A. As to the kind of experiment: SPR (Biacore), anti-Fc capture of receptor. As for the experimental part:
as §1

The target of the next experiment is T6, GDF8. As to the kind of experiment: SPR (Biacore), anti-Fc capture of receptor. As for the experimental part: as §1
The target in a further experiment is T7, activin B. As to the kind of experiment: SPR (Biacore), anti-Fc capture of receptor. Here is the method:
as §1

The experiment “GDF11” concerns the target B3. As to the kind of experiment: SPR (Biacore), anti-Fc capture of receptor. As for the experimental part:
as §1

For experiment [3], the target named is T2, BMP10. As to the kind of experiment: SPR (Biacore), anti-Fc capture of receptor, 37 C. As for the experimental part: (§2) A Biacore™-based binding assay was used to compare the ligand binding kinetics of an ActRIIB-Fc:ActRIIB(L79E)-Fc heterodimer with those of unmodified ActRIIB-Fc homodimer. Fusion proteins were captured onto the system using an anti-Fc antibody. Ligands were then injected and allowed to flow over the captured receptor protein at 37° C. Results are summarized in the table below, in which ligand off-rates (kd) most indicative of effective ligand traps are denoted in bold.

Experiment [4] concerns the target T5, activin A. As to the kind of experiment: SPR (Biacore), anti-Fc capture of receptor, 37 C. As for the experimental part:
as §2

Another experiment addresses T8, ActRIIA-mFc (human, UniProt P27037 21-135).
T8 construct: not shown: minimal linker and mouse Fc domain
As to the kind of experiment: SPR (Biacore), ligand amine-coupled on CM5 chip. As for the experimental part:
GDF11 or activin A were immobilized on a Biacore™ CM5 chip using standard amine-coupling procedure. ActRIIA-hFc and ActRIIA-mFc proteins were loaded onto the system, and binding was measured. […] See FIG. 15A-B. Using a similar binding assay, ActRIIA-hFc was determined to have high to moderate affinity for other TGF-beta superfamily ligands including, for example, activin B, GDF8, BMP6, and BMP10. ActRIIA-mFc behaved similarly.

T8 sequence (P27037 21-135): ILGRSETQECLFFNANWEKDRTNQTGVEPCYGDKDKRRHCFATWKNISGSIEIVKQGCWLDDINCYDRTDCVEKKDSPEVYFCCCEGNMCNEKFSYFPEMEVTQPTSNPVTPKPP

Consider B1, for which the Kd is 2700 pM in the experiment with BMP6; 74 pM in the experiment with BMP10 [1]; 4900 pM with GDF3; 3400 pM in the experiment with BMP9; 12 pM with activin A [2]; 550 pM with GDF8. The figures for the Kd with activin B and with GDF11 were 6 pM and 3 pM, respectively. The koff amounted to 0.0055 s⁻¹ in the experiment with BMP6; 0.0041 s⁻¹ in the experiment with BMP10 [1]; 0.017 s⁻¹ in the experiment with GDF3; 0.00015 s⁻¹ with activin A [2]; 0.00021 s⁻¹ with GDF8; 4e-05 s⁻¹ with activin B. Moreover, the koff in the experiment with GDF11 came to 0.00011 s⁻¹. The kon is 2e+06 M⁻¹ s⁻¹ with BMP6; 5.6e+07 M⁻¹ s⁻¹ with BMP10 [1]; 3.4e+06 M⁻¹ s⁻¹ with GDF3; 1.3e+07 M⁻¹ s⁻¹ with activin A [2]; 390000 M⁻¹ s⁻¹ with GDF8; 7.1e+06 M⁻¹ s⁻¹ in the experiment with activin B. Moreover, the kon with GDF11 was 3.8e+07 M⁻¹ s⁻¹.

For the molecule B2, the “fold faster off-rate than ActRIIB-Fc homodimer” value with BMP10 [3] and with activin A [4] was around 10 fold each time.

On to B3, for which the binding result in the experiment with ActRIIA-mFc was “binds”.
